Data set [1] deals with guinea pig platelet rich plasma. In words: Inhibition of guinea pig platelet aggregation induced by ADP (PRP). Type of data set: cell-based. Conditions: for IC50: guinea pig PRP. An excerpt: 1.1 In Vitro Test for Inhibition of Guinea Pig Platelet Aggregation Induced by ADP
Addition of adenosine diphosphate (ADP) to human or guinea pig platelet rich plasma (PRP) in vitro induces platelet aggregation. This aggregation can be assessed by measuring the change in optical density (OD) of the PRP. The following in vitro test was used to evaluate the test compound for interference with the ADP-induced aggregation of guinea pigs.
Platelet rich plasma (PRP): Free-flowing blood is taken from a healthy volunteer or a guinea pig and collected in 0.1 volume sodium citrate.2H2O, 3.8% in distilled H2O (w/v). The final concentration is 0.38% sodium citrate. The citrated blood is centrifuged at 1,600 N/kg (160 g, i.e., 900 rpm in a Hettich Rotanta/AP at room temperature. After 15 minutes centrifugation is discontinued with brake turned off, and the supernatant (=PRP) is collected. A fresh solution of ADP (analytical grade), 50 μM in 0.9% NaCl in MQ water, is used immediately.
The platelets in the supernatant (PRP) are counted using a Sysmex blood cell counter and the supernatant is diluted with PPP (platelet poor plasma) to obtain a PRP containing approximately 400,000±50,000 plt/mL. PRP should stabilize at room temperature for at least 20 min but not longer than 3 h.
150 μL PRP is pipetted into a well of the microplate. 30 μL test compound in a range of concentrations (7 concentrations per compound) or vehicle is added and the microplate is placed in the Labsystems iEMS reader MF at 37° C. The optical density (OD620) is then measured at 620 nm. After shaking for 2 minutes in the reader (1,000 rpm), the OD is measured for the second time. This is to verify the stability of the platelets (absence of spontaneous platelet aggregation). Then, 20 μL of 50 μM ADP solution is added and the OD is kinetically measured every minute for 14 minutes at 620. Between two measurements, the plate is shaking for 40 seconds at 1,000 rpm. Each test compound is investigated in at least 2 experiments using PRP from different volunteers.
(§1) The mean OD at each compound concentration (including vehicle) is calculated at t=0 min and t=10 min. The percentage inhibition at each concentration is calculated using the formula: […]
The IC50 of the test compound is the concentration at which the ADP-induced platelet aggregation is reduced by 50%. For this, the percentage inhibition values are plotted against compound concentration and the IC50 is calculated using Graphpad Prism 3.0 (with variable slope).
As performed in above described protocol for ADP-induced platelet aggregation. […] Before inducing the guinea pig platelet aggregation by adding ADP, compound and avidin (from egg white, Sigma) in different concentrations were pre-incubated for 2 minutes at room temperature (FIGS. 1 and 2).

Data set [2] can be described thus: Pharmacokinetics after s.c. administration in rat (plasma anti-Xa activity). It counts as in vivo. Conditions: for Tmax / AUC(0-inf) / Cmax / half-life: male, Wistar, plasma, sc; for half-life: read-out: T½ eli (converted); for pharmacokinetic behavior in rats (comparison): within the variability of the experiment. Here is the method:
The pharmacokinetic properties of compounds 10, 12, 17 and 27 were studied in male Wistar rats of 300-400 gr. The rats were anaesthetized by inhalation of a mixture of O2N2O/isoflurane, after which the right jugular vein was cannulated. The next day rats were treated s.c. with doses of 100 or 500 nmol/kg. After s.c. administration, blood was sampled at several time intervals. Then the blood was centrifuged after which the plasma was siphoned off and stored at −20° C. until use. The concentration of the tested compound was measured amidolytically with S2222 (Chromogenix, Chromogenics Ltd, Molndal, Sweden) by determination of the anti-Xa activity based on the method of Teien and Lie in the obtained plasma samples against a calibration curve which was made of the stock solution of the tested compound itself. (Teien A N, Lie M. Evaluation of an amidolytic heparin assay method increased sensitivity by adding purified antithrombin III. Thromb. Res. 1977, 10: 399-410). The concentration in the samples was expressed in nmol/mL and the kinetic parameters were calculated with the noncompartment model of WinNonlin. (FIGS. 6 and 7)

Data set [3] is described as follows: Pharmacokinetics - neutralization experiment with avidin i.v. in rat. The conditions noted are these: for level at time molar at 24 h: plasma, sc, before avidin, read-out: Plasma level T = 24 h; for level at time molar at 24 h / Plasma level T = 26 h / % reduction of plasma concentration: s.c. 500 nmol/kg; for Plasma level T = 26 h: 2 hours after avidin 10 mg/kg i.v. at t = 24 h; for % reduction of plasma concentration: within 2 hours after avidin 10 mg/kg i.v. at t = 24 h, sodium salt. Type of data set: in vivo. Here is the method: 3.2 Pharmacokinetics—Neutralization Experiment:
Rats were treated with compound 10, 12, or 27 at a dose of 100 nmol/kg s.c. At t=1 h, a blood sample was taken and 10 mg/kg of Avidin (from egg white, Sigma) was administered i.v. to the rats treated with compound 10 or 12. Blood was sampled at 0.5-1-3-6 and 23 hours subsequently. The blood was treated as described in the pharmacokinetic experiment and the concentration of the samples was determined by measuring the (residual) anti-Xa activity. (FIG. 8)
In a separate experiment compound 10, 17 or 26 was administered at a dose of 500 nmol/kg s.c. after which blood was collected at 24 hours. Then 10 mg/kg avidin was administered intravenously and blood was collected at 25 and 26 hours. (FIG. 9)

The test system of a further data set is washed human platelets. In words: Inhibition of human platelet aggregation induced by TRAP (washed platelets). It counts as cell-based. Here is the method:
This aggregation can be determined by measuring the optical density of the WPL. The in vitro test described here is used to analyze the activity of a test compound to inhibit TRAP-induced aggregation of human platelets.
Between two measurements, the plate is shaking for 40 seconds at 1,000 rpm.

The next data set has as its system factor Xa. In words: Anti-factor Xa activity in human plasma (amidolytic, S2222). It counts as biochemical. The conditions noted are these: against calibration curve of standard heparin. Here is the method:
1.3 In Vitro Test for Determination of the Anti-Factor Xa Activity in Human Plasma
The anti-factor Xa activity of the tested compounds in human plasma were measured amidolytically with S2222 (Chromogenix, Chromogenics Ltd, Molndal, Sweden) using the method described by Teien and Lie. (Teien A N, Lie M. Evaluation of an amidolytic heparin assay method increased sensitivity by adding purified antithrombin III. Thromb. Res. 1977, 10: 399-410). The anti-Xa activity is expressed in U/μmol after comparison of the amidolytic activity with a calibration curve of standard heparin.

For data set [4], the system named is human platelet rich plasma. The data set can be described thus: Inhibition of human platelet aggregation induced by ADP (PRP). It counts as cell-based. Here is the method: The final concentration is 0.38% sodium citrate.
The optical density (OD620) is then measured at 620 nm. […] This is to verify the stability of the platelets (absence of spontaneous platelet aggregation). […] Between two measurements, the plate is shaking for 40 seconds at 1,000 rpm. Each test compound is investigated in at least 2 experiments using PRP from different volunteers.
as §1

[5] abbreviates: s.c. 100 nmol/kg, avidin 10 mg/kg i.v.

Each structure is given as a SMILES string. Where a name gives a salt, the structure may show the parent alone. Read-outs that look alike come from different tables or passages of the source.

As for `CO[C@H]1O[C@H](COS(=O)(=O)O)[C@@H](O[C@@H]2O[C@@H](C(=O)O)[C@@H](O[C@H]3O[C@H](COS(=O)(=O)O)[C@@H](O[C@@H]4O[C@H](C(=O)O)[C@@H](O[C@H]5O[C@H](COS(=O)(=O)O)[C@@H](OCCOCCOCCOCCNC(=O)COCCOCCOCCOCCNC(=O)c6cccc(S(=O)(=O)N[C@@H](Cc7ccc(OCCCCC8CCNCC8)cc7)C(=O)O)c6)[C@H](OC)[C@H]5OC)[C@H](OC)[C@H]4OC)[C@H](OS(=O)(=O)O)[C@H]3OS(=O)(=O)O)[C@H](OC)[C@H]2OC)[C@H](OS(=O)(=O)O)[C@H]1OS(=O)(=O)O` [Compound 12, sodium salt, reference compound], in data set [1], the “concentration at which maximal inhibition of the guinea pig platelet aggregation is achieved” value amounted to 225 nM and the 50% inhibitory concentration (IC50) is 127 nM. The Tmax in data set [2] (100 nmol/kg) was determined as 1.3 h. In data set [2] (100 nmol/kg, mean ± s.e.m.), the AUC(0-inf) was 16.8 ± 0.5 µM·h, the highest level (Cmax) was 1260 ± 20 nM and the half-life is 9.8 ± 0.4 h. Besides, in data set [2], the “pharmacokinetic behavior in rats (comparison)” value is given as “same pharmacokinetic behavior”. In data set [3] (setting [5]), the “neutralization by avidin of (residual) anti-Xa activity / pharmacokinetic behavior” value is listed as “not affected”. Further, the IC50 with washed human platelets is 65 nM. Further, the “Anti-Xa U/μmol Human plasma pH 7.4” value in the data set with factor Xa was 1392 U/μmol. Also, the IC50 in data set [4] was determined as 92 nM.

Regarding `CO[C@H]1O[C@H](COS(=O)(=O)O)[C@@H](O[C@@H]2O[C@@H](C(=O)O)[C@@H](O[C@H]3O[C@H](COS(=O)(=O)O)[C@@H](O[C@@H]4O[C@H](C(=O)O)[C@@H](O[C@H]5O[C@H](COS(=O)(=O)O)[C@@H](OCCOCCOCCOCCNC(=O)[C@H](CCCCNC(=O)CCCC[C@@H]6SC[C@@H]7NC(=O)N[C@@H]76)NC(=O)COCCOCCOCCOCCNC(=O)c6cccc(S(=O)(=O)N[C@@H](Cc7ccc(OCCCCC8CCNCC8)cc7)C(=O)O)c6)[C@H](OC)[C@H]5OC)[C@H](OC)[C@H]4OC)[C@H](OS(=O)(=O)O)[C@H]3OS(=O)(=O)O)[C@H](OC)[C@H]2OC)[C@H](OS(=O)(=O)O)[C@H]1OS(=O)(=O)O` [Compound 10, sodium salt], in data set [1], the “concentration at which maximal inhibition of the guinea pig platelet aggregation is achieved” value is given as 450 nM and the IC50 was determined as 225 nM. In addition, in data set [2] (500 nmol/kg, mean ± s.e.m.), the Cl came to 0.11 ± 0.005 mL/min/kg, the Vz came out at 0.103 ± 0.009 L/kg, the AUC(0-inf) worked out at 76.2 ± 2.8 µM·h and the Cmax is 4500 ± 400 nM. The half-life in data set [2] (500 nmol/kg, mean ± s.e.m.) is 10.7 ± 1.5 h. Besides, in data set [2] (500 nmol/kg), the Tmax is 1.3 h. Besides, the “pharmacokinetic behavior in rats (comparison)” value in data set [2] is recorded as “same pharmacokinetic behavior”. Further, in data set [3], the level at time molar at 24 h is 733 ± 33 nM, the “Plasma level T = 26 h” value worked out at 185 ± 45 nM and the “% reduction of plasma concentration” value stood at 75%. Besides, in data set [3] (setting [5]), the “Cl in comparison to compound 12” value was “strongly increased”, the “neutralization by avidin of (residual) anti-Xa activity / pharmacokinetic behavior” value was “can be neutralized”, the “overall AUCinf in comparison to compound 12” value is “strongly reduced” and the “overall T1/2 eli in comparison to compound 12” value is listed as “strongly reduced”. The IC50 with washed human platelets came out at 72 nM. The “Anti-Xa U/μmol Human plasma pH 7.4” value with factor Xa was determined as 927 U/μmol. Also, in data set [4], the IC50 is 74 nM.

The compound `CO[C@H]1O[C@H](COS(=O)(=O)O)[C@@H](O[C@@H]2O[C@@H](C(=O)O)[C@@H](O[C@H]3O[C@H](COS(=O)(=O)O)[C@@H](O[C@@H]4O[C@H](C(=O)O)[C@@H](O[C@H]5O[C@H](COS(=O)(=O)O)[C@@H](OCCOCCOCCOCCNC(=O)[C@H](CCCCNC(=O)C[C@H](NC(=O)CCCC[C@@H]6SC[C@@H]7NC(=O)N[C@@H]76)C(=O)O)NC(=O)COCCOCCOCCOCCNC(=O)c6cccc(S(=O)(=O)N[C@@H](Cc7ccc(OCCCCC8CCNCC8)cc7)C(=O)O)c6)[C@H](OC)[C@H]5OC)[C@H](OC)[C@H]4OC)[C@H](OS(=O)(=O)O)[C@H]3OS(=O)(=O)O)[C@H](OC)[C@H]2OC)[C@H](OS(=O)(=O)O)[C@H]1OS(=O)(=O)O` [Compound 17, sodium salt] had an IC50 in data set [1] of 66 nM. Besides, in data set [2] (100 nmol/kg), the time to peak (Tmax) came out at 1.7 h. In addition, in data set [2] (100 nmol/kg, mean ± s.e.m.), the AUC(0-inf) is 15.9 ± 0.9 µM·h, the peak level (Cmax) was 1240 ± 10 nM and the half-life is 10.4 ± 0.5 h. In data set [2], the “pharmacokinetic behavior in rats (comparison)” value is “same pharmacokinetic behavior”. Also, in data set [3], the level at time molar at 24 h worked out at 666 ± 93 nM, the “Plasma level T = 26 h” value is 112 ± 35 nM and the “% reduction of plasma concentration” value is 83%. This compound also yielded an IC50 in the data set on washed human platelets of 74 nM. In addition, in the data set on factor Xa, the “Anti-Xa U/μmol Human plasma pH 7.4” value stood at 1411 U/μmol. The compound also registered an IC50 in data set [4] of 49 nM.
